According to article PMC4920195, “Non-Smc element 5 (Nse5) of the Smc5/6 complex interacts with SUMO pathway components” (Biology Open, 2016):

B1: Nse5-LexA (wild type) [S. cerevisiae] / Nse6-AD [S. cerevisiae] (parent complex)
chain 1: MDGALINSVLYVSPRNGAHYFVELTEKHLLAFEMLNSMCLLENYDHVLLFLECQFGKSHNLAVIPFDIILVLFTLSTLSEYYKEPILRANDPYNTSRETLSRRALKLLQKYLAILKEFDSEQYNLYDLELLRCQFFLAIDTLTPKKQKWGFDRFRRTKSESGVTYRQNASVDPELDQAKTFKNPYRSYISCLEQRNTILGNRLLNLKLNEPGEFINMILWTLSNSLQESTPLFLSSHEIWMPLLEILIDLFSCRQDYFIQHEVAQNVSKSLFVQRLSESPLAVFFESLNTRNFANRFSEYVFLNCDYKLPSDNYATPVHPVYNGENTIVDTYIPTIKCSPLYKSQKSLALRRKLIGSCFKLLLRVPDGHRLITPRIVADDVIQGISRTLASFNDILQFKKFFMTENLSQESYFIPLLAEGTLSEILKDTQECVVILTLVENLSDGVSFCNEVIGLVKSKCFAFTEQCSQASYEEAVLNIEKCDVCLLVLLRYLLHLIGTEAILDAKEQLEMLHAIEKNDSGRRQWAKALNLGNDPPLLYPIVSQMFGVHDKSVIIE
chain 2: MGSVNSSPNEEFETVPDSQISGFDSPLIPTSVGSYFRDDDDDEKVHPNFISDPENDSLNSDEEFSSLENSDLNLSGAKAESGDDFDPILKRTIISKRKAPSNNEDEEIVKTPRKLVNYVPLKIFNLGDSFDDTITTTVAKLQDLKKEILDSPRSNKSIVITSNTVAKSELQKSIKFSGSIPEIYLDVVTKETISDKYKDWHFISKNCHYEQLMDLEMKDTAYSFLFGSSRSQGKVPEFVHLKCPSITNLLVLFGVNQEKCNSLKINYEKKENSRYDNLCTIFPVNKMLKFLMYFYSDDDNDDVREFFLKAFICLILDRKVFNAMESDHRLCFKVLELFNEAHFINSYFEIVDKNDFFLHYRLLQIFPHLQSALLRRRFSEKQGRTETIQQNIIKEFNEFFDCKNYKNLLYFILTMYGSKFIPFGPKCQVTEYFKDCILDISNETTNDVEISILKGILNLFSKIR
B2: Nse5-LexA (wild type) [S. cerevisiae] / Smt3-AD [S. cerevisiae] (parent complex)
chain 1: B1 chain 1
chain 2: MSDSEVNQEAKPEVKPEVKPETHINLKVSDGSSEIFFKIKKTTPLRRLMEAFAKRQGKEMDSLRFLYDGIRIQADQTPEDLDMEDNDIIEAHREQIGGATY

Variants of: B1
Experiment: yeast two-hybrid (β-galactosidase); gal (induced) bar; parent: 2.45e+03

Variant	response
chain 1 Y111H	2170 β-galactosidase activity units
chain 1 Y123H	2190 β-galactosidase activity units
chain 1 N183D	2140 β-galactosidase activity units
chain 1 H319Y	2070 β-galactosidase activity units

Variants of: B1
Experiment: yeast two-hybrid (β-galactosidase); gal (induced) bar; vector bait control 2.8; parent: 2.45e+03

Variant	response
chain 1 L70A	2130 β-galactosidase activity units
chain 1 L247A	2570 β-galactosidase activity units

Variants of: B2
Experiment: yeast two-hybrid (β-galactosidase); gal (induced) bar; vector bait control 7.3; parent: 1.95e+03

Variant	response
chain 1 L70A, chain 1 L247A	6.6 β-galactosidase activity units
chain 1 L247A	7.4 β-galactosidase activity units
chain 1 L70A	7.8 β-galactosidase activity units
